Measurements from US20060235215A1 (published 2006).

T1: O. sativa Cellulose Synthase Catalytic Subunit, RSW1-Like, bait fragment aa 316-583 (Oryza sativa, UniProt A2Y0X2 316-583)
T1 construct: bait; also called OsCS; PN19707
T1 sequence: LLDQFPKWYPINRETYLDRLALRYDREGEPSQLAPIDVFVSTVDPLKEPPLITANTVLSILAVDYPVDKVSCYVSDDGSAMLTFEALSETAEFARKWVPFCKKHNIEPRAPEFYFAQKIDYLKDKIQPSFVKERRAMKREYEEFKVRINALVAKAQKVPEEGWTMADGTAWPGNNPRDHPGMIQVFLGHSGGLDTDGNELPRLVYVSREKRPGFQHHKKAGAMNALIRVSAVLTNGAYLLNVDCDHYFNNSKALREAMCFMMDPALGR

T2: O. sativa 14-3-3 Protein Homolog GF14-c, bait fragment aa 1-150 (Oryza sativa, UniProt Q6ZKC0 1-150)
T2 construct: bait; also called OsGF14-c; PN12464
T2 sequence: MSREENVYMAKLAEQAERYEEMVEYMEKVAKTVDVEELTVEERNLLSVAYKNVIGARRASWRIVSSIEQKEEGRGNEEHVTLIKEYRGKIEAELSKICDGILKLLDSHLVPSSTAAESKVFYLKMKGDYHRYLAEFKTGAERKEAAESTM

B1: Novel Protein PN29084, Fragment, Similar to Soybean (Glycine max) Calcium-Dependent Protein Kinase, prey clone aa 1-253 (other)
chain: ESGIFRQILRGKLDLESDPWPSISDSAKDLVRNMLIRDPTKRFTAHEVLCHPWIVDDAVAPDKPIDSAVLSRLKHFSAMNKLKKMALRVIAESLSEEEIGGLKELFKMIDTDNSGTITYDELKNGLKRVGSDLMEPEIQALMDAADIDNSGTIDYGEFLAATLHMNKLEREENLVSAFTFFDKDGSGFITIDELSQACEQFGLSDVHLEDMIKDVDQNNDGQIDYSEFAAMMRKGNAGGANAGGVTSTGGTGR
notes: prey; AD fusion; output trait library; three clones; also called OsPN29084
B2: Novel Protein PN29117, prey clone aa 1-151 (printed -7-151) (other)
chain: MLVQRRDGDTGPAVRLRVSHGASFRDVAVPAHSTFGELKGVLTQATGVEPERQRLFFRGKEKSDNEFLHTAGVKDGAKLLLLEKPAPANVEQRAEPVIMDESMMKACEAVGRVRAEVDRLSAKVCDLEKSVFAGRKIEDKDFVVLTELLMM
notes: prey; AD fusion; output trait library; clone also holds a small portion (-7 to 0) of the 5' untranslated region; also called OsPN29117; BAG-like protein
B3: O. sativa salT Gene Product, prey clone aa 6-145 (other)
chain: IGPWGGNGGSAQDISVPPKKLLGVTIYSSDAIRSIAFNYIGVDGQEYAIGPWGGGESTSTEIKLGSSEQIKEISGTHGPVYDLADIVTYLKIVTSANNTYEAGVPNGKEFSIPLQDSGHVVGFFGRSGTLIDAIGIYVHP
notes: prey; AD fusion; output trait library; also called OsAAB53810; PN29086
B4: Novel Protein PN29116, Fragment, prey clone aa 1-169 (other)
chain: GRKPVAAQHYNKGDKDGTSTGSRCTSVAWVPEREGIFVVSHSDGNLYVYDKCKDGNTECTFPAIKDPAQLMISHAKSSKSNPIARWHVCQGSINAISFSPDGAYLATVGRDGYLRVFDFSKEQLIFGGKSYYGALLCCTWSSDGKYLLTGGEDDLVQVWSMDDRKIVAW
notes: prey; AD fusion; output trait library; also called OsPN29116
B5: O. sativa DNAJ Homologue, prey clone aa 1-92 (other)
chain: CKVSYIDAILGTTVKVPTVDGMVDLKIPSGTQPGTTLVMSKKGVPLLGKSNARGDQLVRVQVEIPKRLSSDERKLIEELANLNKAQTANSRR
notes: prey; AD fusion; output trait library; also called OsPN29113
B6: Novel Protein PN29119, Fragment, prey clone aa 1-155 (printed -53 to 155) (other)
chain: MEFEADGARWPEPRGDAAGAPPLERGDAPSPRFDSSRALRLLRELGSNVTEDLVVLMPNLLSFLKHDDPVVVNQSIASGTNLFAAVLEEMTLQINKCGRVDAWLEEMWAWTKQFKDAVHNLIHESVPVATKLFAVKFIETWILCFAPQSKSDRMQ
notes: prey; AD fusion; output trait library; clone also holds a portion of the 5' untranslated region; also called OsPN29119
B7: O. sativa Cellulose Synthase Catalytic Subunit, RSW1-Like, prey clone aa 316-582 (enzyme)
chain: LLDQFPKWYPINRETYLDRLALRYDREGEPSQLAPIDVFVSTVDPLKEPPLITANTVLSILAVDYPVDKVSCYVSDDGSAMLTFEALSETAEFARKWVPFCKKHNIEPRAPEFYFAQKIDYLKDKIQPSFVKERRAMKREYEEFKVRINALVAKAQKVPEEGWTMADGTAWPGNNPRDHPGMIQVFLGHSGGLDTDGNELPRLVYVSREKRPGFQHHKKAGAMNALIRVSAVLTNGAYLLNVDCDHYFNNSKALREAMCFMMDPALG
notes: prey; AD fusion; input trait library; also called OsCS; PN19707
B8: Novel Protein PN29115, Fragment, Similar to A. thaliana 6,7-Dimethyl-8-Ribityllumazine Synthase Precursor, prey clone aa 1-188 (other)
chain: VSFPYSPRPAALAAGARASRVSPVVVAAGGGHQRLMGSLTNTQGLRFGVVVARFNEIVTNLLLQGALETFERYSVKKENITVLSVPGSFEIPVAAQKLGKSGKFDANFVHWRCAFRGDTTHYGAVANSAASGVLSAGLSAEIPCIFGVLTCDDMDQALNRAGGKAGNKGAEAALTAIEMASLFQHHLA
notes: prey; AD fusion; output trait library; also called OsPN29115
B9: Novel Protein PN29076, Fragment, prey clone aa 1-187 (other)
chain: ERDISMVNSYPPSAFDCKGWNSASIFIYESDEEIQCLLDWLRDYDPREKELKDSILQWQRHFCHQSSSPLVDPPISGPKGEQLMELPNTKAAVILEQKYGLQLDQDTSDLPKKRGKKIKLSSEDRTYRCDCLEPVWPSRYHCLTCHETYLISTEFEGHNDGKCSKIHQSPDESRENDEPKVKVTKSD
notes: prey; AD fusion; output trait library; also called OsPN29076
B10: Novel Protein PN29077, Fragment, Similar to A. thaliana DNA-Damage Inducible Protein DDI1-Like, prey clone aa 1-242 (other)
chain: VEAQKKIEAAIRQKGIDENWEAALEHNPEAFARVVMLYVDMEVNGVPLKAFVDSGAQSTIISKSCAERCGLLRLLDQRYRGVAIGVGQSEILGRIHVAPIKIGHVFYPCSFTVLDAPNMEFLFGLDMLRKHQCIIDLKDNVLRVGGGEVSVPFLQEKDIPSHIRDEEKLSKLASLSQGAAGESSTAREKTPDAPPRAPTTGAPAVNPPQPQGGGDFEAKVTKLVELGFDRASVIQALKLFNG
notes: prey; AD fusion; output trait library; four clones; also called OsPN29077
B11: O. sativa Aquaporin, prey clone aa 123-290 (other)
chain: RKVSLVRAILYIVAQCLGAICGVGLVNAFPNAYFNRYGGGANTLAAGYSKGTGLAAEIIGTFVLVYTVFSATDPKRNARDSHVPVLAPLPIGFAVFMVHLATIPITGTGINPARSIGAAVIFNNEKAWHNHWIFWVGPFVGAAIAAFYHQYILRAGAIKALGSFRSNA
notes: prey; AD fusion; output trait library; also called OsPIP2A; OsPIP2a
B12: OsContig4331, O. sativa Putative 33 kDa Oxygen-Evolving Protein of Photosystem II, prey clone aa 193-333 (other)
chain: DGIDYAAVTVQLPGGERVPFLFTIKNLVATGKPESFGGPFLVPSYRGSSFLDPKGRGGSTGYDNAVALPAGGRGDEEELAKENVKNASSSTGNITLSVTKSKPETGEVIGVFESVQPSDTDLGAKVPKDVKIQGVWYAQLE
notes: prey; AD fusion; input trait library; also called OsPN23059
B13: Novel Protein PN30846 (putative dynamin homolog), prey clone aa 1-266 (other)
chain: APRRPSTFLNAVALGNVGAGKSAVLNSLIGHPVLPTGENGATRAPIVVDLQRDPGLSSKSIVLQIDSKSQRVSASSLRHSLQDRLSKGASSGSSRGRVEGINLKLRTSTAPPLKLVDLPGIDQRAVDDPMINEYAGHNDAILLVVIPAMQAADVASSRALRLAKDIDADGTRTVGVISKVDQAEGDAKTIACVQALLLNKGPKNLPDIEWVALIGQSVAIASAQAAGSENSLETAWNAEAETLRSILTGAPKSKLGRIALVDTIAK
notes: prey; AD fusion; input trait library; also called OsPN30846
B14: Novel Protein PN22866, Fragment, Similar to A. thaliana Vacuolar ATP Synthase Subunit C, prey clone aa 95-305 (other)
chain: LLALSDDLVKSNVFIEGVSHKIRRQIEELERAGGVESGALTVDGVPVDTYLTRFVWDEGKYPTMSPLKEIAGSIQSQVSKIEDDMKVRGAEYNNVRSQLNAINRKQTGSLAVRDLSNLVKPEDMVTSEHLVTLLAVVPQYSQKDWLSSYESLDTFVVPRSSKKLYEDNEYALYTVTLFAKVVDNFKVRAREKGFQVRDFEYSSEAQESRKE
notes: prey; AD fusion; input trait library; also called OsPN22866
B15: Novel Protein PN30974, prey clone aa 38-178 (other)
chain: GGYDHPGLIPGLPDEISLQILARMPRMGYLNAKMVSRSWKAAITGVELYRVRKELGVSEEWLYMLTKSDDGKLVWNAFDPVCGQWQRLPLMPGISHGGECKRGIPGLWLGDLLSAGIRVSDVIRGWLGQRDSLDRLPFCGC
notes: prey; AD fusion; input trait library; also called OsPN30974
B16: Novel Protein PN29982, prey clone aa 201-300 (other)
chain: SPVVDNADVTETKPQTELPVHVMCAEWSSQKRLKKVQLETLERVYSRTKRPTNTMISSIVQVTSLPRKTIVKWFEDRREQDGVPDHRVAFKRSLSETIAS
notes: prey; AD fusion; input trait library; also called OsPN29982
B17: OsContig4331, O. sativa Putative 33 kDa Oxygen-Evolving Protein of Photosystem II, prey clone aa 90-169 (other)
chain: PRRLTFDEIQSKTYMEVKGTGTANQCPTVEGGVDSFAFKAGKYNMKKFCLEPTSFTVKAEGVAKNAPPEFQKTKLMTRLT
notes: as for B12
B18: Hypothetical Protein OsContig3864, Similar to H. vulgare Photosystem I Reaction Center Subunit II, Chloroplast Precursor, prey clone aa 94-203 (other)
chain: VITWTSPKEQVFEMPTGGAAIMREGPNLLKLARKEQCLALGTRLRSKYKINYQFYRVFPNGEVQYLHPKDGVYPEKVNAGRQGVGQNFRSIGKNVSPIEVKFTGKNVFDI
notes: prey; AD fusion; input trait library; also called OsPN23061
B19: O. sativa Photosystem II 10 kDa Polypeptide, prey clone aa 82-126 (other)
chain: SPEEWSPTGDTYVGGTTGLLIWAVTLAGLLGGGALLVYNTSALAG
notes: prey; AD fusion; input trait library; also called OsAAB46718; PN22840
B20: O. sativa 3-Phosphoshikimate 1-carboxyvinyltransferase (a.k.a. EPSP Synthase), prey clone aa 463-511 (enzyme)
chain: AIDTYDDHRMAMAFSLAACADVPVTIRDPGCTRKTFPNYFDVLSTFVRN
notes: prey; AD fusion; input trait library; also called OsBAB61062; PN22844
B21: Novel Protein 22858, Fragment, similar to Arabidopsis GTP Cyclohydrolase II, prey clone aa 27-154 (other)
chain: DKPTDGFSSIDEAIGALHEGKFVIAVDDESGDNEGDLVMAATLADPESIAFMIRNGSGIISVGMKEEDLTRLMIPMMSPIAEIEDISAAASTVTVDARVGISTGVSAADRAKTIFTLASPDSKPTDLR
notes: prey; AD fusion; input trait library; also called OsPN22858
B22: O. sativa Ribulose Bisphosphate Carboxylase/Oxygenase Activase, Large Isoform A1, prey clone aa 68-210 (enzyme)
chain: DISDDQQDITRGKGFVDSLFQAPTGDGTHEAVLSSYEYLSQGLRTYDFDNTMGGFYIAPAFMDKLVVHISKNFMTLPNIKVPLILGIWGGKGQGKSFQCELVFAKMGINPIMMSAGELESGNAGEPAKLIRQRYREAADIIKK
notes: prey; AD fusion; input trait library; also called OsRCAA1; PN19842
B23: O. sativa Fructose-Bisphosphate Aldolase, Chloroplast Precursor, prey clone aa 206-269 (enzyme)
chain: QDNGLVPIVEPEILLDGEHGIDRTFEVAQKVWAETFFYMAENNVMFEGILLKPSMVTPGAECKD
notes: prey; AD fusion; input trait library; also called OsBAA02730; PN22832
B24: Novel Protein 22874, Fragment, similar to Arabidopsis Putative Phosphatidylinositol-4-phosphate 5-kinase, prey clone aa 1-88 (other)
chain: GTNPGFRVGEIRLSNRDIYFGTLLGNTPEGSGRYVWSDGCTYDGEWRRGMRHGQGKTMWPSGATYEGEYSGGYIYGEGTYTGSDNIVY
notes: prey; AD fusion; input trait library; also called OsPN22874; rice PI4P5K

Target: T1, O. sativa Cellulose Synthase Catalytic …
Assay: yeast two-hybrid
Experimental: Yeast carrying the target gene construct was combined with yeast carrying the activation domain library. The two yeast strains mated to form diploid yeast and were plated on media that selected for expression of one or more Ga14p-responsive reporter genes. Thus, both hybrid proteins (i.e., the target “bait” protein and the activation domain “prey” protein) were expressed in a yeast reporter strain where an interaction between the test proteins results in transcription of the reporter genes […]. Colonies that arose after incubation were selected for further characterization. The activation domain plasmid was isolated from each colony obtained in the two-hybrid search. The sequence of the insert in this construct was obtained by sequence analysis (e.g., Sanger's dideoxy nucleotide chain termination method; see Ausubel et al., 1988, including updates up to 2002). Thus, the identity of positives obtained from these searches was determined by sequence analysis against proprietary and public (e.g., GENBANK®) nucleic acid and protein databases.
A second bait, namely O. sativa Cellulose Synthase Catalytic Subunit, RSW1-Like (OSCS; PN19707; GENBANK® Accession No. AF030052), was also used.

Binding result, binds:
B1
B2
B3
B4
B5
B6
B7
B8
B9
B10
B11

Target: T2, O. sativa 14-3-3 Protein Homolog …
Assay: yeast two-hybrid

Binding result, binds:
B12
B13
B14
B15
B16
B17
B18
B19
B20
B21
B22
B23
B24
